Test results as given in paper PMC7396694, “Two MarR-Type Repressors Balance Precursor Uptake and Glycine Betaine Synthesis in Bacillus subtilis to Provide Cytoprotection Against Sustained Osmotic Stress” (Frontiers in Microbiology, 2020).

T1: GbsR-Strep-tag II (Bacillus subtilis JH642) (UniProt P71015)
T1 sequence: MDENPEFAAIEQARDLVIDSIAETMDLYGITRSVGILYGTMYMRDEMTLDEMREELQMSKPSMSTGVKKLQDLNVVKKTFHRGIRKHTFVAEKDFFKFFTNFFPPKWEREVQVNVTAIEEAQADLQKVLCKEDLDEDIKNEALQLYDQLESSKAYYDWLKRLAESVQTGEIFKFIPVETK

B1: GbsR-Strep-tag II recombinant protein (natural protein, Bacillus subtilis, UniProt P71015 1-180, looked up)
chain: T1 sequence
notes: GbsR, choline-responsive MarR-type repressor of Bacillus subtilis; coding region of gbsR amplified from chromosomal DNA of B. subtilis JH642; also called GbsR repressor; not shown: Strep-tag II, C-terminal, kept

Assays:
[1] = molecular target: T1, GbsR-Strep-tag II (Bacillus subtilis JH642); experiment: EMSA; details: 10 mM Tris pH 8, 150 ug/ml herring sperm DNA, 7.5% glycerol, 1 pmol DNA in 20 ul, 20 min at 25 C; native 8% polyacrylamide gel
[2] = molecular target: the molecule itself; experiment: SEC; HiLoad 16/600 Superdex 200 pg; 2 ml protein solution (1 mg/ml) loaded immediately after affinity purification; 100 mM potassium phosphate (pH 8), 300 mM NaCl; column standardised with thyroglobulin, albumin, ovalbumin, cytochrome C

Molecule	binding [1]	stoichiometry N [2]
GGGACTTTGACAGTTTAAAAACCATATGTTAGATTAAGGTTGTTAAAAACATTAAATTTTTATTTAACAAACTTTATTTACGTCAAGGAGGCTTAT (double strand) [gbsA fragment with GbsR operator]	binds	–
B1	–	2
